For data set [1], the system named is HeLa Kyoto. In words: solubility in G1/S (NP-40 vs SDS abundance) (log2 ratio); higher = more soluble. The following applies: cell cycle stage: G1/S.
In data set [2] the test system is HeLa Kyoto. Description: melting temperature (median over replicates), in situ; higher = more thermally stable.
Data set [3] has as its system HeLa Kyoto. Description: solubility change mitosis vs G1/S (difference of NP-40 vs SDS log2 ratios) (log2 ratio difference); higher = more soluble in mitosis.
The subject of data set [4] is HeLa Kyoto. Description: thermal stability score vs G1/S (z-score of summed log2 fold changes over temperatures); higher = more thermally stable than in G1/S.
Setting [5] is: cell cycle stage: early G1 (4.5 h after nocodazole release).
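Wherever melting temperature (median over replicates), in situ is given: HeLa Kyoto cells synchronized by double thymidine or nocodazole block, proteins quantified by TMT10plex mass spectrometry, three independent biological replicates.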
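Wherever solubility change mitosis vs G1/S (difference of NP-40 vs SDS log2 ratios) is given: synchronized HeLa Kyoto cells (double thymidine block for G1/S, nocodazole release for mitosis), protein amounts in NP-40 versus SDS lysates quantified by mass spectrometry, three biological replicates.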
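Wherever solubility in G1/S (NP-40 vs SDS abundance) is given: HeLa Kyoto cells arrested at G1/S by double thymidine block, proteins quantified by TMT10plex mass spectrometry in mild NP-40 versus SDS extracts, three biological replicates.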
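Wherever thermal stability score vs G1/S (z-score of summed log2 fold changes over temperatures) is given: synchronized HeLa Kyoto cells, proteins quantified by TMT10plex mass spectrometry, three biological replicates, mitosis taken 0.5 h after nocodazole release, G1/S directly after double thymidine block.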

Regarding “MSTSWSDRLQNAADMPANMDKHALKKYRREAYHRVFVNRSLAMEKIKCFGFDMDYTLAVYKSPEYESLGFELTVERLVSIGYPQELLSFAYDSTFPTRGLVFDTLYGNLLKVDAYGNLLVCAHGFNFIRGPETREQYPNKFIQRDDTERFYILNTLFNLPETYLLACLVDFFTNCPRYTSCETGFKDGDLFMSYRSMFQDVRDAVDWVHYKGSLKEKTVENLEKYVVKDGKLPLLLSRMKEVGKVFLATNSDYKYTDKIMTYLFDFPHGPKPGSSHRPWQSYFDLILVDARKPLFFGEGTVLRQVDTKTGKLKIGTYTGPLQHGIVYSGGSSDTICDLLGAKGKDILYIGDHIFGDILKSKKRQGWRTFLVIPELAQELHVWTDKSSLFEELQSLDIFLAELYKHLDSSSNERPDISSIQRRIKKVTHDMDMCYGMMGSLFRSGSRQTLFASQVMRYADLYAASFINLLYYPFSYLFRAAHVLMPHESTVEHTHVDINEMESPLATRNRTSVDFKDTDYKRHQLTRSISEIKPPNLFPLAPQEITHCHDEDDDEEEEEEEE [NT5C2]”, the “solubility in G1/S (log2)” value in data set [1] was -0.096. Also, the melting temperature came out at 56.5 °C in data set [2] (cell cycle stage: G1/S) and 56.3 °C in data set [2] (cell cycle stage: mitosis). In data set [3], the “solubility change mitosis (log2)” value was -0.133. The thermal stability score in data set [4] (setting [5]) was -0.51; in data set [4] (cell cycle stage: mitosis), -1.23.
Take “MSVSLVVIRLELAEHSPVPAGFGFSAAAGEMSDEEIKKTTLASAVACLEGKSPGEKVAIIHQHLGRREMTDVIIETMKSNPDELKTTVEERKSSEASPTAQRSKDHSKECINAAPDSPSKQLPDQISFFSGNPSVEIVHGIMHLYKTNKMTSLKEDVRRSAMLCILTVPAAMTSHDLMKFVAPFNEVIEQMKIIRDSTPNQYMVLIKFRAQADADSFYMTCNGRQFNSIEDDVCQLVYVERAEVLKSEDGASLPVMDLTELPKCTVCLERMDESVNGILTTLCNHSFHSQCLQRWDDTTCPVCRYCQTPEPVEENKCFECGVQENLWICLICGHIGCGRYVSRHAYKHFEETQHTYAMQLTNHRVWDYAGDNYVHRLVASKTDGKIVQYECEGDTCQEEKIDALQLEYSYLLTSQLESQRIYWENKIVRIEKDTAEEINNMKTKFKETIEKCDNLEHKLNDLLKEKQSVERKCTQLNTKVAKLTNELKEEQEMNKCLRANQVLLQNKLKEEERVLKETCDQKDLQITEIQEQLRDVMFYLETQQKINHLPAETRQEIQEGQINIAMASASSPASSGGSGKLPSRKGRSKRGK [BRAP]”: the “solubility in G1/S (log2)” value in data set [1] came out at 0.1. For the same sequence, the melting temperature in data set [2] (cell cycle stage: G1/S) was 50.3 °C; in data set [2] (cell cycle stage: mitosis), 50.2 °C. Further, in data set [3], the “solubility change mitosis (log2)” value is -0.181. Besides, the thermal stability score came to 0.558 in data set [4] (setting [5]) and 1.83 in data set [4] (cell cycle stage: mitosis).
“MSVVGLDVGSQSCYIAVARAGGIETIANEFSDRCTPSVISFGSKNRTIGVAAKNQQITHANNTVSNFKRFHGRAFNDPFIQKEKENLSYDLVPLKNGGVGIKVMYMGEEHLFSVEQITAMLLTKLKETAENSLKKPVTDCVISVPSFFTDAERRSVLDAAQIVGLNCLRLMNDMTAVALNYGIYKQDLPSLDEKPRIVVFVDMGHSAFQVSACAFNKGKLKVLGTAFDPFLGGKNFDEKLVEHFCAEFKTKYKLDAKSKIRALLRLYQECEKLKKLMSSNSTDLPLNIECFMNDKDVSGKMNRSQFEELCAELLQKIEVPLYSLLEQTHLKVEDVSAVEIVGGATRIPAVKERIAKFFGKDISTTLNADEAVARGCALQCAILSPAFKVREFSVTDAVPFPISLIWNHDSEDTEGVHEVFSRNHAAPFSKVLTFLRRGPFELEAFYSDPQGVPYPEAKIGRFVVQNVSAQKDGEKSRVKVKVRVNTHGIFTISTASMVEKVPTEENEMSSEADMECLNQRPPENPDTDKNVQQDNSEAGTQPQVQTDAQQTSQSPPSPELTSEENKIPDADKANEKKVDQPPEAKKPKIKVVNVELPIEANLVWQLGKDLLNMYIETEGKMIMQDKLEKERNDAKNAVEEYVYEFRDKLCGPYEKFICEQDHQNFLRLLTETEDWLYEEGEDQAKQAYVDKLEELMKIGTPVKVRFQEAEERPKMFEELGQRLQHYAKIAADFRNKDEKYNHIDESEMKKVEKSVNEVMEWMNNVMNAQAKKSLDQDPVVRAQEIKTKIKELNNTCEPVVTQPKPKIESPKLERTPNGPNIDKKEEDLEDKNNFGAEPPHQNGECYPNEKNSVNMDLD [HSPH1]”: the “solubility in G1/S (log2)” value in data set [1] was 0.203. In addition, the melting temperature is 50.2 °C in data set [2] (cell cycle stage: G1/S) and 49.7 °C in data set [2] (cell cycle stage: mitosis). Also, the “solubility change mitosis (log2)” value in data set [3] is -0.0593. For the same sequence, the figures for the thermal stability score in data set [4] (setting [5]) and in data set [4] (cell cycle stage: mitosis) were 1.34 and 1.52, respectively.
As for “MSWFNASQLSSFAKQALSQAQKSIDRVLDIQEEEPSIWAETIPYGEPGISSPVSGGWDTSTWGLKSNTEPQSPPIASPKAITKPVRRTVVDESENFFSAFLSPTDVQTIQKSPVVSKPPAKSQRPEEEVKSSLHESLHIGQSRTPETTESQVKDSSLCVSGETLAAGTSSPKTEGKHEETVNKESDMKVPTVSLKVSESVIDVKTTMESISNTSTQSLTAETKDIALEPKEQKHEDRQSNTPSPPVSTFSSGTSTTSDIEVLDHESVISESSASSRQETTDSKSSLHLMQTSFQLLSASACPEYNRLDDFQKLTESCCSSDAFERIDSFSVQSLDSRSVSEINSDDELSGKGYALVPIIVNSSTPKSKTVESAEGKSEEVNETLVIPTEEAEMEESGRSATPVNCEQPDILVSSTPINEGQTVLDKVAEQCEPAESQPEALSEKEDVCKTVEFLNEKLEKREAQLLSLSKEKALLEEAFDNLKDEMFRVKEESSSISSLKDEFTQRIAEAEKKVQLACKERDAAKKEIKNIKEELATRLNSSETADLLKEKDEQIRGLMEEGEKLSKQQLHNSNIIKKLRAKDKENENMVAKLNKKVKELEEELQHLKQVLDGKEEVEKQHRENIKKLNSMVERQEKDLGRLQVDMDELEEKNRSIQAALDSAYKELTDLHKANAAKDSEAQEAALSREMKAKEELSAALEKAQEEARQQQETLAIQVGDLRLALQRTEQAAARKEDYLRHEIGELQQRLQEAENRNQELSQSVSSTTRPLLRQIENLQATLGSQTSSWEKLEKNLSDRLGESQTLLAAAVERERAATEELLANKIQMSSMESQNSLLRQENSRFQAQLESEKNRLCKLEDENNRYQVELENLKDEYVRTLEETRKEKTLLNSQLEMERMKVEQERKKAIFTQETIKEKERKPFSVSSTPTMSRSSSISGVDMAGLQTSFLSQDESHDHSFGPMPISANGSNLYDAVRMGAGSSIIENLQSQLKLREGEITHLQLEIGNLEKTRSIMAEELVKLTNQNDELEEKVKEIPKLRTQLRDLDQRYNTILQMYGEKAEEAEELRLDLEDVKNMYKTQIDELLRQSLS [TMF1]”, the “solubility in G1/S (log2)” value in data set [1] worked out at 0.0833. The melting temperature in data set [2] (cell cycle stage: G1/S) turned out to be 54.5 °C; in data set [2] (cell cycle stage: mitosis), 54.4 °C. The “solubility change mitosis (log2)” value in data set [3] is -0.065. In addition, the thermal stability score is -2.48 in data set [4] (setting [5]) and -0.992 in data set [4] (cell cycle stage: mitosis).
On to “MSWFVDLAGKAEDLLNRVDQGAATALSRKDNASNIYSKNTDYTELHQQNTDLIYQTGPKSTYISSAADNIRNQKATILAGTANVKVGSRTPVEASHPVENASVPRPSSHFVRRKKSEPDDELLFDFLNSSQKEPTGRVEIRKEKGKTPVFQSSQTSSVSSVNPSVTTIKTIEENSFGSQTHEAASNSDSSHEGQEESSKENVSSNAACPDHTPTPNDDGKSHELSNLRLENQLLRNEVQSLNQEMASLLQRSKETQEELNKARARVEKWNADHSKSDRMTRGLRAQVDDLTEAVAAKDSQLAVLKVRLQEADQLLSTRTEALEALQSEKSRIMQDQSEGNSLQNQALQTFQERLHEADATLKREQESYKQMQSEFAARLNKVEMERQNLAEAITLAERKYSDEKKRVDELQQQVKLYKLNLESSKQELIDYKQKATRILQSKEKLINSLKEGSGFEGLDSSTASSMELEELRHEKEMQREEIQKLMGQIHQLRSELQDMEAQQVNEAESAREQLQDLHDQIAGQKASKQELETELERLKQEFHYIEEDLYRTKNTLQSRIKDRDEEIQKLRNQLTNKTLSNSSQSELENRLHQLTETLIQKQTMLESLSTEKNSLVFQLERLEQQMNSASGSSSNGSSINMSGIDNGEGTRLRNVPVLFNDTETNLAGMYGKVRKAASSIDQFSIRLGIFLRRYPIARVFVIIYMALLHLWVMIVLLTYTPEMHHDQPYGK [GOLGA5]”, for which the “solubility in G1/S (log2)” value in data set [1] is 0.284. For the same sequence, the melting temperature in data set [2] (cell cycle stage: G1/S) was 52.7 °C; in data set [2] (cell cycle stage: mitosis) it was 53 °C. Besides, the “solubility change mitosis (log2)” value in data set [3] is -0.148. Besides, the thermal stability score in data set [4] (setting [5]) stood at 1.32; in data set [4] (cell cycle stage: mitosis) it was 2.34.

Source of the values: the supplement of paper PMC5998384.
